Results as given in patent US20180258408A1.
Values joined by “and” are separate entries in the source; they are usually repeats but may differ in a detail not shown here. Equal entries are not always repeated.

B1: sulfamidase modified with R1 oxidation at 22 °C, 120 min, 10 mmol/L sodium meta-periodate (enzyme)
chain: RPRNALLLLADDGGFESGAYNNSAIATPHLDALARRSLLFRNAFTSVSSCSPSRASLLTGLPQHQNGMYGLHQDVHHFNSFDKVRSLPLLLSQAGVRTGIIGKKHVGPETVYPFDFAYTEENGSVLQVGRNITRIKLLVRKFLQTQDDRPFFLYVAFHDPHRCGHSQPQYGTFCEKFGNGESGMGRIPDWTPQAYDPLDVLVPYFVPNTPAARADLAAQYTTVGRMDQGVGLVLQELRDAGVLNDTLVIFTSDNGIPFPSGRTNLYWPGTAEPLLVSSPEHPKRWGQVSEAYVSLLDLTPTILDWFSIPYPSYAIFGSKTIHLTGRSLLPALEAEPLWATVFGSQSHHEVTMSYPMRSVQHRHFRLVHNLNFKMPFPIDQDFYVSPTFQDLLNRTTAGQPTGWYKDLRHYYYRARWELYDRSRDPHETQNLATDPRFAQLLEMLRDQLAKWQWETHDPWVCAPDGVLEEKLSPQCQPLHNEL
modifications: N-glycans oxidised with periodate (22 °C, 120 min, 10 mmol/L), then reduced with borohydride as in new method 1
B2: sulfamidase modified with R1 oxidation at 22 °C, 30 min, 10 mmol/L sodium meta-periodate (enzyme)
chain: B1 chain
modifications: N-glycans oxidised with periodate (22 °C, 30 min, 10 mmol/L), then reduced with borohydride as in new method 1
B3: sulfamidase modified with R1 oxidation at 0 °C, 120 min, 40 mmol/L sodium meta-periodate (enzyme)
chain: B1 chain
modifications: N-glycans oxidised with periodate (0 °C, 120 min, 40 mmol/L), then reduced with borohydride as in new method 1
B4: sulfamidase modified with R1 oxidation at 8 °C, 60 min, 20 mmol/L sodium meta-periodate (enzyme)
chain: B1 chain
modifications: N-glycans oxidised with periodate (8 °C, 60 min, 20 mmol/L), then reduced with borohydride as in new method 1
B5: sulfamidase modified with R1 oxidation at 0 °C, 120 min, 10 mmol/L sodium meta-periodate (enzyme)
chain: B1 chain
modifications: N-glycans oxidised with periodate (0 °C, 120 min, 10 mmol/L), then reduced with borohydride as in new method 1
B6: sulfamidase modified according to the known method (WO 2008/109677) (enzyme)
chain: B1 chain
modifications: N-glycans oxidised with 20 mM sodium meta-periodate (6.5 h) and reduced with 100 mM sodium borohydride (overnight); FGly50 about 56% converted to Ser; Met184 and Met443 almost completely oxidised
B7: sulfamidase modified according to new method 1 (enzyme)
chain: B1 chain
modifications: N-glycans oxidised with 20 mM sodium meta-periodate (0 °C, 120 min) and reduced with 50 mM sodium borohydride (0 °C, 120 min); FGly50 about 45% converted to Ser
B8: sulfamidase modified according to new method 4 (enzyme)
chain: B1 chain
modifications: N-glycans oxidised with 20 mM sodium meta-periodate (0 °C, 120 min) and reduced with 10 mM sodium borohydride; FGly50 about 11% converted to Ser
B9: sulfamidase modified with R1 oxidation at 0 °C, 30 min, 10 mmol/L sodium meta-periodate (enzyme)
chain: B1 chain
modifications: N-glycans oxidised with periodate (0 °C, 30 min, 10 mmol/L), then reduced with borohydride as in new method 1
B10: sulfamidase modified with R1 oxidation at 0 °C, 30 min, 40 mmol/L sodium meta-periodate (enzyme)
chain: B1 chain
modifications: N-glycans oxidised with periodate (0 °C, 30 min, 40 mmol/L), then reduced with borohydride as in new method 1
B11: sulfamidase modified with R1 oxidation at 22 °C, 30 min, 40 mmol/L sodium meta-periodate (enzyme)
chain: B1 chain
modifications: N-glycans oxidised with periodate (22 °C, 30 min, 40 mmol/L), then reduced with borohydride as in new method 1
B12: sulfamidase modified with R1 oxidation at 22 °C, 120 min, 40 mmol/L sodium meta-periodate (enzyme)
chain: B1 chain
modifications: N-glycans oxidised with periodate (22 °C, 120 min, 40 mmol/L), then reduced with borohydride as in new method 1

These binders were tested against M6P receptors on MEF-1 fibroblasts (assay: cell-based or functional assay).

| Cell uptake % of unmodified sulfamidase uptake (% of unmodified sulfamidase uptake) | specific activity in cell homogenate (endocytosis in MEF-1 cells) (% of unmodified recombinant sulfamidase) | Binder |
| --- | --- | --- |
| 8.5 | – | B1 |
| 7.1 | – | B2 |
| 3.5 | – | B3 |
| 6.1 and 6.5 | – | B4 |
| 9.5 | – | B5 |
| – | < 10 | B6 |
| – | < 10 | B7 |
| – | < 10 | B8 |
| 12 | – | B9 |
| 3.8 | – | B10 |
| 2.7 | – | B11 |
| 3.5 | – | B12 |
